The text below walks through data of PMC6686228, “Contribution of Cytidine Deaminase to Thymidylate Biosynthesis in Trypanosoma brucei: Intracellular Localization and Properties of the Enzyme” (mSphere, 2019).

Series [1] has as its target Trypanosoma brucei cytidine deaminase (recombinant His tag fusion protein) (Trypanosoma brucei brucei (427 strain)). Nature of the series: SEC; gel filtration of purified recombinant TbCDA on Superdex 200, 50 mM phosphate buffer (pH 7.4) plus 150 mM NaCl, calibrated with molecular weight markers; 500 ul injected. On the technique in general: SEC sorts molecules by how far they enter the pores of the column.

Substrate in series [2]: Cc1cn([C@H]2C[C@H](O)[C@@H](CO)O2)c(=O)nc1N
Nature of the series: purified protein. The series is classed as biochemical, Trypanosoma brucei. The settings on record: 50 mM Tris-HCl pH 7.5, 1 mM DTT, 0.125 μM enzyme.

Substrate in series [3]: Nc1ccn([C@@H]2O[C@H](CO)[C@@H](O)[C@H]2O)c(=O)n1
Nature of the series: purified protein. The series is classed as biochemical, Trypanosoma brucei. The settings on record: 50 mM Tris-HCl pH 7.5, 1 mM DTT, 0.125 μM enzyme.

Substrate in series [4]: Nc1ccn([C@H]2C[C@H](O)[C@@H](CO)O2)c(=O)n1
Nature of the series: purified protein. The series is classed as biochemical, Trypanosoma brucei. The note with it: 50 mM Tris-HCl pH 7.5, 1 mM DTT, 0.125 μM enzyme.

For “Trypanosoma brucei cytidine deaminase (recombinant His tag fusion protein) (enzyme)”, the stoichiometry N in series [1] was 4.

B1: TbCDA (Trypanosoma brucei brucei TREU927) (protein)
chain: MQCSSLKTGCLKLLSQLPEGLQQAGRTAVSAHQRSYCPYSNFAVGAALLHDDGKVTSGCNYETCVYKGTCAEACAIVKANMDGYRTAQAVAIYGRSVLPTAAAAAADATVPPCGFCRQLLAEVADLSGNMNDFLVVLVTFDQEHARLFRLSELLPQPFGPSSIGMDVAALATGEHSRCPGTF
On to B1, for which, in “purified protein [2]”, the Km came out at 24.5 ± 3.3 µM, the Vmax was 5.9 µmol/min/mg, the kcat came to 2.09 ± 0.08 s⁻¹ and the kcat/Km came to 85000 M⁻¹ s⁻¹. Besides, in “purified protein [3]”, the Km came to 199.5 ± 9.0 µM, the Vmax was found to be 126 µmol/min/mg, the kcat was found to be 44.8 ± 1.2 s⁻¹ and the kcat/Km is 225000 M⁻¹ s⁻¹. For the same molecule, in “purified protein [4]”, the Km is 52.3 ± 4.5 µM, the maximum rate (Vmax) came to 34.9 µmol/min/mg, the turnover number (kcat) turned out to be 12.4 ± 0.293 s⁻¹ and the kcat/Km is 238000 M⁻¹ s⁻¹.

Broadly, the stoichiometry N is a count of units in the complex or per binding partner. What is called Km is the concentration of substrate that gives half-maximal velocity. One may read the Vmax as the rate approached at saturating substrate. One may read the kcat as the maximal rate divided by the concentration of active sites. What is called kcat/Km is the second-order rate constant that governs catalysis at low substrate concentration.
